Assay results reported in publication doi:10.1101/2020.11.23.394106 (bioRxiv, 2020).
Where no end group is shown, it is not given here.

T1: merlin FERM domain (22-312), GST tag cleaved (human, UniProt P35240 22-312)
T1 sequence: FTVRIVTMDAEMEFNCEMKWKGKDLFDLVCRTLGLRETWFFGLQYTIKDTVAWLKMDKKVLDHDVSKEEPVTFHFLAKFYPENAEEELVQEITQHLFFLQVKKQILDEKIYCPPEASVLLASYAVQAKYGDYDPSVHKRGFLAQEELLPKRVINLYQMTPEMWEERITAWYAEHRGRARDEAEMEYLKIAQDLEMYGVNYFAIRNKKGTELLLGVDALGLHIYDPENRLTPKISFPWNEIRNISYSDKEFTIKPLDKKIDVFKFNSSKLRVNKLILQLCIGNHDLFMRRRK


Experiments:
[1] = target: moesin FERM domain, GST tag cleaved (UniProt P26038 2-295); assay: fluorescence polarisation
[2] = target: T1, merlin FERM domain (22-312), GST tag …; assay: fluorescence polarisation

moesin FERM domain, GST tag cleaved, sequence (P26038 2-295): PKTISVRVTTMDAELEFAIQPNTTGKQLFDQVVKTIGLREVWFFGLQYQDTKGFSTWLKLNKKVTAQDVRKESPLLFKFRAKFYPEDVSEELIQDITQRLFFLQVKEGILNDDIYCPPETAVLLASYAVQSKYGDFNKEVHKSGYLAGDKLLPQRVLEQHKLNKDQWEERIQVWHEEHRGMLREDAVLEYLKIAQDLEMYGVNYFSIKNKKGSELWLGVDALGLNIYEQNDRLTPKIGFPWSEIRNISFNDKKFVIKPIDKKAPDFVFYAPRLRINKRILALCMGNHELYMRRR

Row | Kd [1] [nM] | binding result [2] | Binder | further results
1 | 120 | – | TNGYYSVNTFKEHHSTPTI [KIRREL3 peptide with N-terminal extension of three amino acids (634-652), unlabeled] | –
2 | 90 | – | YYSVNTFKEHHSTPTI [KIRREL3_(637-652), unlabeled peptide] | –
3 | – | binds | LEFADFYDFRSSYPDH (also: FITC label, site not given here) [FITC-labeled ZNF622_(341-356)] | –
4 | – | – | AEPLPSLEYWPQKSDR (also: FITC label (position not given here)) [FITC-labeled FAM83G_(111-126)] | Kd [2]: 93000 nM
5 | – | binds | FYDLWASDNPLDRPLV (also: FITC label, site not given here) [FITC-labeled NOP53_(192-207)] | –
